Source: patent publication US20220226430A1
Values joined by “and” are separate entries in the source; they are usually repeats but may differ in a detail not shown here. Equal entries are not always repeated.

Target: TcdB from C. difficile strain M68 (Clostridium difficile strain M68)
Test: cell-based or functional assay

Binder | EC50 against TcdB (in vitro neutralization) [nM] | TcdB neutralization EC50 (Vero cells, CellTiterGlo) [nM] | fold more efficacious than bezlotoxumab at inhibiting TcdB (CellTiter-Glo assay) [fold] | fold higher neutralization activity than D16 alone
DARPin dimer DLD-4 (designed binder) GSDLGKKLLEAARAGQDDEVRILMANGADVNADDRIGMTPLHLAAIGGHLEIVEVLLKNGADVNADDVHGRTPLHLAAGRGHLEIVEVLHGADVNAPDRWGRTPLHLAAHHGHLEIVEVLLKYGADVNAQDKFGKTAFDISIDNGNEDLAEILQSSSEFGGGGSGGGGSGGGGSASDLGKKLLEAARAGQDDEVRILMANGADVNATDHLGVTPLHLAAVLGHLEIVEVLLKHGADVNAYDILGRTPLHLAAWRGHLEIVEVLLKYGADVNADDTSGTTPLHLAAGEGHLEIVEVLLKYGADVNAQDKFGKTAFDISIDNGNEDLAEILQSSS | 0.02 | 0.016 | 33 | 
dimeric DARPin U3D16 (designed binder) GSDLGKKLLEAARAGQDDEVRILMANGADVNADDRIGMTPLHLAAIGGHLEIVEVLLKNGADVNADDVHGRTPLHLAAGRGHLEIVEVLHGADVNAPDRWGRTPLHLAAHHGHLEIVEVLLKYGADVNAQDKFGKTAFDISIDSGNEDLAEILQSSSGGGGSGGGGSGGGGSGSDLGKKLLEAARAGQDDEVRILMANGADVNAADRYGPTPLHLAAYRGHLEIVEVLLKHGADVNAKDVLGWTPLHLAAWIGHLEIVEVLLKNGADVNARDRTGETPLHLAAAIGHLEIVEVLLKNGADVNAQDKFGKTAFDISIDNGNEDLAEILQSSS |  |  |  | 10 fold and 20 fold
